Laboratory results from patent publication US20210206855A1 (ADAGENE, published 2021).

Experiments:
[1] = target: T1, recombinant human CTLA4-Fc (Sino Biological, 11159-H03H) (human, UniProt P16410 37-162); assay: ELISA, coated human CTLA4-Fc, batch 2
T1 construct: bought; whole entry named; Biotinylated in the yeast display assays; also called human CTLA4 fused with human FC fragment; biotinylated CTLA4-Fc; not shown: human Fc fragment
T1 sequence (looked up): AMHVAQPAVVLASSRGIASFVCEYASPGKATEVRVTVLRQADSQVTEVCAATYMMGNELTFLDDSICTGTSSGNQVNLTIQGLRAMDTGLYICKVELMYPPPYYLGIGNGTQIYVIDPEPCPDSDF
Method: (§1) Plates were blocked with PBS supplemented with 3% non-fat milk at 37° C. for 1 hour. After washing, 100 μL of 3-fold serial dilutions of antibodies were added to each well. After incubation at 37° C. for 1 hour, plates were washed four times, and […] conjugated anti-human IgG (Fab specific) (1:6000 dilution) was added to each well. Plates were incubated at 37° C. for 1 hour, washed four times, and then 50 μL TMB substrate solution was added to each well, and the plate was incubated at room temperature. […] The EC₅₀ was evaluated by fitting the ELISA data using the asymmetrical sigmoidal (five-parameter logistic equation) model of GraphPad Prism 6 software.

[2] = target: T1, recombinant human CTLA4-Fc (Sino …); assay: ELISA, coated human CTLA4-Fc, batch 1
Method: as §1

[3] = target: T1, recombinant human CTLA4-Fc (Sino …); assay: ELISA, coated human CTLA4-Fc (as Example 8)
Method: as §1

[4] = target: T1, recombinant human CTLA4-Fc (Sino …); assay: ELISA, coated human CTLA4-Fc (as Example 8); remark: listed apart in the source
Method: as §1

[5] = target: T1, recombinant human CTLA4-Fc (Sino …); assay: ELISA, coated human CTLA4-Fc
Method: (§2) The ability of certain IgG antibodies to bind to soluble human (FIG. 1A, Table 5A) or canine (FIG. 1B, Table 5B) CTLA4 was next tested. 1 μg/mL human CTLA4 fused with human FC fragment, or canine CTLA4 fused with His tag, were prepared and used to coat an ELISA plate at 2-8° C. overnight. After blocking, 100 μL serial diluted IgG antibodies were added and incubated at 37° C. for 1 hour. Plates were washed for four times and then incubated with HRP-anti human IgG (Fab specific) (1:6000 dilution) at 37° C. for 1 hour. Plates were washed again four times and incubated with TMB substrate for 15 minutes at room temperature. […] The data was analyzed by Graphpad Prism 6 with nonlinear fitting.

[6] = target: T2, canine CTLA4 fused with His tag (canine, UniProt Q9XSI1 36-162, limits assumed); assay: ELISA, coated canine CTLA4-His
T2 construct: soluble protein; also called dog CTLA4; not shown: His tag
T2 sequence (looked up): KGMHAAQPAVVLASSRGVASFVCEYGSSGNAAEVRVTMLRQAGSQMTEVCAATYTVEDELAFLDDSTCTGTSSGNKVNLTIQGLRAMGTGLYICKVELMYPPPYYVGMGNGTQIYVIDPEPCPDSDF
Method: as §2

[7] = target: T3, cynomolgus monkey CTLA4 antigen fused with human FC fragment (cynomolgus monkey, UniProt G7PL88 36-161, fused to a human Fc fragment that is not in the letters); assay: ELISA, captured Fab
T3 sequence: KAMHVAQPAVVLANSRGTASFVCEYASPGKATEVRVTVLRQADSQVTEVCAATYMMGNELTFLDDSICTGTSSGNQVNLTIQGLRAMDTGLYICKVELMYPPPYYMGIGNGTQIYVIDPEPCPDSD

[8] = target: T4, recombinant human CTLA4 fused with human Fc and His tag (human, UniProt P16410 37-162, limits assumed, biotinylated where used in solution); assay: competition ELISA: plate-bound human CTLA4-Fc-His, biotinylated human CD80 as the blocked ligand, HRP-neutravidin
T4 construct: also called biotinylated human CTLA4 fused with human FC and His tag; recombinant human CTLA4 proteins; not shown: human Fc and His tag
T4 sequence (looked up): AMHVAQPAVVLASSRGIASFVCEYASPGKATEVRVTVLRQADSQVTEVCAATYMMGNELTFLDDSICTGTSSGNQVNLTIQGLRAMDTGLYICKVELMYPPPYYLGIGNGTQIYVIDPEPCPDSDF
Method: Plates were blocked with PBS supplemented with 2% (w/v) skim milk at 37° C. for 1 hour. […] Plates were washed four times, and 100 μL HRP-neutravidin (1:1000) was added to each well and incubated at 37° C. for 1 hour. Plates were washed as previously described, and 50 μL TMB substrate solution was added and incubated at room temperature for 5 minutes before the reaction was stopped by 50 μL sulfate acid (2M).

B1: TY22566 (antibody, IgG1, V domains shown)
VH: EVQLVESGGGLVQPGGSLRLSCAASGYSISSGYHWSWIRQAPGKGLEWLARIDWDDDKYYSTSLKSRLTISRDNSKNTLYLQLNSLRAEDTAVYYCARSYVYFDYWGQGTLVTVSS
VL: EVGSYPNPASDCVPYYYACAYSGRSAGGGGSPLGLAGSGGSDIQLTQSPSSLSASVGDRVTITCRASQSVRGRFLAWYQQKPGKAPKLLIYDASNRATGIPSRFSGSGSGTDFTLTISSLQPEDFATYYCQQSSSWPPTFGQGTKVEIKR
EC50 [1]: 163 nM | LogEC50 [1]: -6.79 log M

B2: TY22563 (antibody, IgG1, V domains shown)
VH: EVQLVESGGGLVQPGGSLRLSCAASGYSISSGYHWSWIRQAPGKGLEWLARIDWDDDKYYSTSLKSRLTISRDNSKNTLYLQLNSLRAEDTAVYYCARSYVYFDYWGQGTLVTVSS
VL: EVGSYYSAYPACDSHYPYCQSSGRSAGGGGSPLGLAGSGGSDIQLTQSPSSLSASVGDRVTITCRASQSVRGRFLAWYQQKPGKAPKLLIYDASNRATGIPSRFSGSGSGTDFTLTISSLQPEDFATYYCQQSSSWPPTFGQGTKVEIKR
EC50 [1]: 47.7 nM | LogEC50 [1]: -7.32 log M

B3: TY22564 (antibody, IgG1, V domains shown)
VH: EVQLVESGGGLVQPGGSLRLSCAASGYSISSGYHWSWIRQAPGKGLEWLARIDWDDDKYYSTSLKSRLTISRDNSKNTLYLQLNSLRAEDTAVYYCARSYVYFDYWGQGTLVTVSS
VL: EVGSYYSAYPACDSHYPYCNSAGRSAGGGGSPLGLAGSGGSDIQLTQSPSSLSASVGDRVTITCRASQSVRGRFLAWYQQKPGKAPKLLIYDASNRATGIPSRFSGSGSGTDFTLTISSLQPEDFATYYCQQSSSWPPTFGQGTKVEIKR
EC50 [1]: 39 nM | LogEC50 [1]: -7.41 log M

B4: TY22402 (antibody, IgG1, V domains shown)
VH: EVQLVESGGGLVQPGGSLRLSCAASGYSISSGYHWSWIRQAPGKGLEWLARIDWDDDKYYSTSLKSRLTISRDNSKNTLYLQLNSLRAEDTAVYYCARSYVYFDYWGQGTLVTVSS
VL: EVGSYIVHHSDCDAFYPYCDSSGRSAGGGGSPLGLAGSGGSDIQLTQSPSSLSASVGDRVTITCRASQSVRGRFLAWYQQKPGKAPKLLIYDASNRATGIPSRFSGSGSGTDFTLTISSLQPEDFATYYCQQSSSWPPTFGQGTKVEIKR
notes: also called masking peptide B13180
EC50 [2]: 478 nM | LogEC50 [2]: -6.32 log M | EC50 [1]: 125 nM | LogEC50 [1]: -6.9 log M

B5: TY22402 (peptide as listed in Table 26) (antibody, V domains shown)
VH: EVQLVESGGGLVQPGGSLRLSCAASGYSISSGYHWSWIRQAPGKGLEWLARIDWDDDKYYSTSLKSRLTISRDNSKNTLYLQLNSLRAEDTAVYYCARSYVYFDYWGQGTLVTVSS
VL: EVGSYIVHHSDCDAFYPYCDSSGRSAGGGGTPLGLAGSGGSDIQLTQSPSSLSASVGDRVTITCRASQSVRGRFLAWYQQKPGKAPKLLIYDASNRATGIPSRFSGSGSGTDFTLTISSLQPEDFATYYCQQSSSWPPTFGQGTKVEIKR
notes: kept apart from m66
EC50 [3]: 54 nM | EC50 [4]: 116 nM

B6: TY22401 (antibody, V domains shown)
VH: EVQLVESGGGLVQPGGSLRLSCAASGYSISSGYHWSWIRQAPGKGLEWLARIDWDDDKYYSTSLKSRLTISRDNSKNTLYLQLNSLRAEDTAVYYCARSYVYFDYWGQGTLVTVSS
VL: EVGSYNFVADSCPDHPYPCSASGRSAGGGGSPLGLAGSGGSDIQLTQSPSSLSASVGDRVTITCRASQSVRGRFLAWYQQKPGKAPKLLIYDASNRATGIPSRFSGSGSGTDFTLTISSLQPEDFATYYCQQSSSWPPTFGQGTKVEIKR
notes: peptide fused to the N-terminus of the light chain; also called masking peptide B13189
EC50 [2]: 23.8 nM | LogEC50 [2]: -7.62 log M | EC50 [1]: 15.9 nM | LogEC50 [1]: -7.8 log M

B7: TY22565 (antibody, IgG1, V domains shown)
VH: EVQLVESGGGLVQPGGSLRLSCAASGYSISSGYHWSWIRQAPGKGLEWLARIDWDDDKYYSTSLKSRLTISRDNSKNTLYLQLNSLRAEDTAVYYCARSYVYFDYWGQGTLVTVSS
VL: EVGSYPQPSSDCVPYYYACAYSGRSAGGGGSPLGLAGSGGSDIQLTQSPSSLSASVGDRVTITCRASQSVRGRFLAWYQQKPGKAPKLLIYDASNRATGIPSRFSGSGSGTDFTLTISSLQPEDFATYYCQQSSSWPPTFGQGTKVEIKR
EC50 [1]: 210 nM | LogEC50 [1]: -6.68 log M

B8: TY21591 (antibody, V domains shown)
VH: EVQLVESGGGLVQPGGSLRLSCAASGFSLSTGGVAVSWIRQAPGKGLEWIGEIYHSGSTYYSPSLKSRVTISRDNSKNTLYLQLNSLRAEDTAVYYCARRIATATYFDYWGQGTLVTVSS
VL: DIQLTQSPSSLSASVGDRVTITCRASQTVFSRYLAWYQQKPGKAPKLLIYDASNRATGIPSRFSGSGSGTDFTLTISSLQPEDFATYYCQQSYYWPPWTFGQGTKVEIK
LogEC50 [5]: -9.08 log M | LogEC50 [6]: -9.15 log M

B9: B15740 (Fab, V domains shown)
VH: EVQLVESGGGLVQPGGSLRLSCAASGFTFSDYWIHWVRQAPGKGLEWIGWISPSGGGTKYAQKFQGRVTISRDNSKNTLYLQLNSLRAEDTAVYYCARGAYEFDYWGQGTLVTVSS
VL: DIQLTQSPSSLSASVGDRVTITCRASQSVSSRFLAWYQQKPGKAPKLLIYDASNRATGIPSRFSGSGSGTDFTLTISSLQPEDFATYYCQQSYPTPLTFGQGTKVEIKR
notes: Fab hit from E. coli
binding result [7]: binds

B10: TY21687 (antibody, V domains shown)
VH: EVQLVESGGGLVQPGGSLRLSCAASGFTFSGYAIHWVRQAPGKGLEWIGIISPSGGGTKYAQKFQGRVTISRDNSKNTLYLQLNSLRAEDTAVYYCARHPFAYWGQGTLVTVSS
VL: DIQLTQSPSSLSASVGDRVTITCRASQSVDFYGISFLDWYQQKPGKAPKLLIYDASNRATGIPSRFSGSGSGTDFTLTISSLQPEDFATYYCQQYVSSPPEYTFGQGTKVEIK
LogEC50 [5]: -9.49 log M | LogEC50 [6]: -9.13 log M | IC50 (read off the curve) [8]: ~40 nM

B11: TY21585 (antibody, V domains shown)
VH: EVQLVESGGGLVQPGGSLRLSCAASGFTFSDYAIHWVRQAPGKGLEWIGIISPSSGSTNYAQKFQGRVTISRDNSKNTLYLQLNSLRAEDTAVYYCARDIHSGSSGYYYGFDVWGQGTLVTVSS
VL: DIQLTQSPSSLSASVGDRVTITCRASESVDFFGISFLAWYQQKPGKAPKLLIYDASNRATGIPSRFSGSGSGTDFTLTISSLQPEDFATYYCQHYTSSPPVYTFGQGTKVEIK
LogEC50 [5]: -9.26 log M | LogEC50 [6]: -8.22 log M | IC50 (read off the curve) [8]: ~20 nM

B12: B15722 (Fab, V domains shown)
VH: EVQLVESGGGLVQPGGSLRLSCAASGFTFSDYGIHWVRQAPGKGLEWIGEIYHSGSTYYSPSLKSRVTISRDNSKNTLYLQLNSLRAEDTAVYYCARDVAPGSSGYYDGFDFWGQGTLVTVSS
VL: DIQLTQSPSSLSASVGDRVTITCRASQGIGSSLAWYQQKPGKAPKLLIYDASNRATGIPSRFSGSGSGTDFTLTISSLQPEDFATYYCQQYDQWPPWTFGQGTKVEIKR
notes: Fab hit from E. coli
binding result [7]: binds
